Substrate: O=C1OC(c2ccc(O)c(S(=O)(=O)O)c2)(c2ccc(O)c(S(=O)(=O)O)c2)c2c(Br)c(Br)c(Br)c(Br)c21
Test: TP_TRANSPORTER: uptake in bile canalicular membrane vesicles from Wistar rat
Type: functional, cell membranes, Bile canalicular membrane vesicle

B1: ATP-binding cassette sub-family C member 2 (Rattus norvegicus) (protein)
chain: MDKFCNSTFWDLSLLESPEADLPLCFEQTVLVWIPLGFLWLLAPWQLYSVYRSRTKRSSITKFYLAKQVFVVFLLILAAIDLSLALTEDTGQATVPPVRYTNPILYLCTWLLVLAVQHSRQWCVRKNSWFLSLFWILSVLCGVFQFQTLIRALLKDSKSNMAYSYLFFVSYGFQIVLLILTAFSGPSDSTQTPSVTASFLSSITFSWYDRTVLKGYKHPLTLEDVWDIDEGFKTRSVTSKFEAAMTKDLQKARQAFQRRLQKSQRKPEATLHGLNKKQSQSQDVLVLEEAKKKSEKTTKDYPKSWLIKSLFKTFHVVILKSFILKLIHDLLVFLNPQLLKLLIGFVKSSNSYVWFGYICAILMFAVTLIQSFCLQSYFQHCFVLGMCVRTTVMSSIYKKALTLSNLARKQYTIGETVNLMSVDSQKLMDATNYMQLVWSSVIQITLSIFFLWRELGPSILAGVGVMVLLIPVNGVLATKIRNIQVQNMKNKDKRLKIMNEILSGIKILKYFAWEPSFQEQVQGIRKKELKNLLRFGQLQSLLIFILQITPILVSVVTFSVYVLVDSANVLNAEKAFTSITLFNILRFPLSMLPMVTSSILQASVSVDRLERYLGGDDLDTSAIRRVSNFDKAVKFSEASFTWDPDLEATIQDVNLDIKPGQLVAVVGTVGSGKSSLVSAMLGEMENVHGHITIQGSTAYVPQQSWIQNGTIKDNILFGSEYNEKKYQQVLKACALLPDLEILPGGDMAEIGEKGINLSGGQKQRVSLARAAYQDADIYILDDPLSAVDAHVGKHIFNKVVGPNGLLAGKTRIFVTHGIHFLPQVDEIVVLGKGTILEKGSYRDLLDKKGVFARNWKTFMKHSGPEGEATVNNDSEAEDDDDGLIPTMEEIPEDAASLAMRRENSLRRTLSRSSRSSSRRGKSLKNSLKIKNVNVLKEKEKEVEGQKLIKKEFVETGKVKFSIYLKYLQAVGWWSILFIILFYGLNNVAFIGSNLWLSAWTSDSDNLNGTNNSSSHRDMRIGVFGALGLAQGICLLISTLWSIYACRNASKALHGQLLTNILRAPMRFFDTTPTGRIVNRFSGDISTVDDLLPQTLRSWMMCFFGIAGTLVMICMATPVFAIIIIPLSILYISVQVFYVATSRQLRRLDSVTKSPIYSHFSETVTGLPIIRAFEHQQRFLAWNEKQIDINQKCVFSWITSNRWLAIRLELVGNLVVFCSALLLVIYRKTLTGDVVGFVLSNALNITQTLNWLVRMTSEAETNIVAVERISEYINVENEAPWVTDKRPPADWPRHGEIQFNNYQVRYRPELDLVLKGITCNIKSGEKVGVVGRTGAGKSSLTNCLFRILESAGGQIIIDGIDVASIGLHDLRERLTIIPQDPILFSGSLRMNLDPFNKYSDEEVWRALELAHLRSFVSGLQLGLLSEVTEGGDNLSIGQRQLLCLGRAVLRKSKILVLDEATAAVDLETDSLIQTTIRKEFSQCTVITIAHRLHTIMDSDKIMVLDNGKIVEYGSPEELLSNRGSFYLMAKEAGIENVNHTEL
B1 gave a Km of 31 µM.
